± gives the uncertainty stated by the source.
Assay: protein stability index of a GFP-peptide fusion (yeast GPS) (PSI 1-4); higher = more stable; sorted into four equal gates, so the index is relative within each strain
Outline: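 Mid-log yeast cultures in leucine-free medium, carrying a pooled plasmid library, were sorted into four equal gates by their GFP/Cherry fluorescence ratio. Each plasmid expressed Cherry along with GFP fused upstream of a tiled 17-residue yeast protein peptide. Plasmids recovered from each gate were PCR-amplified and Illumina-sequenced, with reads assigned to strains by barcodes. The protein stability index was obtained by summing each gate's read frequency weighted by its gate number.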

| Sequence | protein stability index (doa10∆) | protein stability index (pdr5∆) | protein stability index (san1∆) | protein stability index (ubr1∆) |
| --- | --- | --- | --- | --- |
| ATTGGLFGSKPQGSTTN [YGR119C/NUP57] | 3.34 ± 0.1 | 3.37 ± 0.1 | 3.39 ± 0.12 | 3.55 ± 0.18 |
| ATVDEFPLCVHLVSNEL [RPL10] | 3.01 ± 0.073 | 2.93 ± 0.067 | 3.05 ± 0.069 | 2.99 ± 0.053 |
| ATYMDNDIAGQPQALQK [RPO21] | 2.56 ± 0.077 | 2.49 ± 0.078 | 2.5 ± 0.073 | 2.7 ± 0.051 |
| AVEQLAGCKIDNVDDIG [YDL088C/ASM4] | 2.86 ± 0.075 | 2.64 ± 0.071 | 2.56 ± 0.08 | 2.61 ± 0.047 |
| AVGNLGNAVTVTEDGTV [RPL22A] | 1.46 ± 0.062 | 1.96 ± 0.094 | 2.22 ± 0.095 | 1.99 ± 0.094 |
| AVKKLYAIIINYTKDNE [YCS4] | 1.82 ± 0.057 | 2.05 ± 0.068 | 1.93 ± 0.1 | 1.91 ± 0.029 |
| AVSKDPLLTKRKDLRDK [DIS3] | 2.97 ± 0.14 | 3.41 ± 0.13 | 2.78 ± 0.22 | 3.25 ± 0.14 |
| AVSRSMTDIWNTLIPES [ECM29] | 2.94 ± 0.067 | 3.05 ± 0.08 | 2.84 ± 0.054 | 3.03 ± 0.069 |
| AVVFKPFKGEVVDGTVV [RPB7] | 3.05 ± 0.1 | 3.03 ± 0.048 | 2.79 ± 0.062 | 2.79 ± 0.068 |
| AVVGNNMLLDPAANESE [RRP42] | 1.47 ± 0.083 | 1.81 ± 0.073 | 2.48 ± 0.093 | 2.12 ± 0.048 |
| AYEEEEENEDNDGNNRT [NUT1] | 3.25 ± 0.12 | 3.37 ± 0.11 | 3.47 ± 0.15 | 3.46 ± 0.068 |
| AYLLLVQGGNAAPSAAD [RPP2B] | 1.84 ± 0.05 | 1.98 ± 0.038 | 1.96 ± 0.062 | 2.45 ± 0.061 |
| CDGDTVWDKFAVNLLNC [SSN2] | 3.29 ± 0.1 | 3.3 ± 0.098 | 3.14 ± 0.07 | 3.11 ± 0.1 |
| CDKSVCRKCYARLPPRA [RPL40A] | 2.5 ± 0.078 | 2.93 ± 0.073 | 2.56 ± 0.07 | 2.66 ± 0.062 |
| CDLSSKFNKSKAKFTSL [YCS4] | 2.72 ± 0.055 | 2.79 ± 0.07 | 2.98 ± 0.05 | 2.64 ± 0.037 |
| CFSQENIEEMARVILYL [SIN4] | 2.47 ± 0.083 | 2.76 ± 0.14 | 2.79 ± 0.095 | 2.76 ± 0.054 |
| CFVLGIASMSTVRASSL [SMC2] | 1.51 ± 0.056 | 1.86 ± 0.055 | 1.83 ± 0.072 | 1.94 ± 0.065 |
| CIIFITFEFINIAFDAH [YML031W/NDC1] | 1.23 ± 0.043 | 1.44 ± 0.044 | 1.38 ± 0.085 | 1.32 ± 0.032 |
| CIPLVGISVPFHSTYLM [FAS1] | 1.43 ± 0.041 | 1.3 ± 0.04 | 1.27 ± 0.069 | 1.39 ± 0.027 |
| CITKQDGFKIYDNEKTA [PUP2] | 2.85 ± 0.1 | 3.06 ± 0.063 | 3.1 ± 0.05 | 2.82 ± 0.095 |
| CKQFPKLSCIQLNCIDT [SRB8] | 1.54 ± 0.041 | 1.95 ± 0.039 | 1.52 ± 0.043 | 1.66 ± 0.026 |
| CLFTKCLEDPEKPFNEN [POP4] | 2.67 ± 0.15 | 3.02 ± 0.15 | 2.7 ± 0.2 | 2.96 ± 0.079 |
| CLNTQRGDSTETSSFGS [RRI1] | 3.61 ± 0.14 | 3.25 ± 0.17 | 3.37 ± 0.084 | 3.56 ± 0.17 |
| CLTGTVAARMFHILLKL [ECM29] | 2.42 ± 0.093 | 2.03 ± 0.096 | 2.74 ± 0.058 | 2.44 ± 0.069 |
| CLTKFQDEEQTEHLTEL [YCG1] | 3.33 ± 0.13 | 3 ± 0.15 | 3.46 ± 0.075 | 2.85 ± 0.11 |
| CNALIHIKFSAGTEANA [SRB4] | 1.96 ± 0.05 | 2.31 ± 0.039 | 2.19 ± 0.054 | 2.33 ± 0.034 |
| CNQMENLLESITKLLEI [YCS4] | 3.19 ± 0.083 | 2.8 ± 0.054 | 2.9 ± 0.061 | 2.96 ± 0.059 |

— the supplement of paper PMC9732359
